Reference: publication PMC3136132

Biological target: FMRP (UniProt Q06787)
Experiment: biotin-RNA affinity capture
Settings: 50 mM Tris-HCl pH 7.4, 2 mM MgCl2, 150 mM KCl, 1 mM EDTA, 1 mM DTT (Schaeffer buffer without tRNA, supplemented with 125 mM NaCl); SoftLink avidin resin …; scale: fold more RNA needed than eEF-1A mRNA for comparable binding

BC1 RNA, annealed
fold more RNA needed than eEF-1A mRNA: 100
